The chains are these.
B1: Cyclin-F, residues 28 to 80; numbered along this chain, P41002 (parent)
chain: RNLTILSLPEDVLFHILKWLSVEDILAVRAVHSQLKDLVDNHASVWACASFQE

± gives the uncertainty stated by the source.

Variants of B1 are the subject of the data set. Kind of data set: abundance fitness (aPCA) (normalised: wild type 0, dead -1); higher = more abundant; growth selection in yeast, the domain comes from the species named. The following applies: Homo sapiens.
Turning to RNLTILSLPEDVLFHILKWLSVEDILRVRAVHSQLKDLVDNHASVWACASFQE [A27R], the abundance fitness is -0.047 ± 0.085.

On to RNLTILSLPEDVLFHILKWLSVEDILGVRAVHSQLKDLVDNHASVWACASFQE [A27G], for which the abundance fitness was -0.787 ± 0.098.

As to RNLTILSLPEDVLFHILKWLSVEDILMVRAVHSQLKDLVDNHASVWACASFQE [A27M], the abundance fitness is -0.273 ± 0.12.

In the case of RNLTILSLPEDVLFHILKWLSVEDILAVRAVHSQLKDLVDNHASVRACASFQE [W46R], the abundance fitness is -0.058 ± 0.081.

For RNLTILSLPEDVLFHILKWLSVEDILAVRAVHSQLKDLVDNHASVKACASFQE [W46K], the abundance fitness is -0.289 ± 0.2.

As to RNLTILSLPEDVLFHILVWLSVEDILAVRAVHSQLKDLVDNHASVWACASFQE [K18V], the abundance fitness is -0.452 ± 0.11.

Consider RNLTILSLPEDVLFHILKWLSVEDILAVRAVHSQLKDLVDNPASVWACASFQE [H42P], for which the abundance fitness is -0.526 ± 0.15.

For the variant RNLTILSLPEDVLFHILKWLSVEDILAVRAVHSQLKDLVDNVASVWACASFQE [H42V], the abundance fitness is -0.716 ± 0.095.

Consider RNLTILSLPEDVLFHILKWLSVEDILAVRAVHSQLKDLVDNAASVWACASFQE [H42A], for which the abundance fitness is -0.442 ± 0.087.

Take RNLTILSLPSDVLFHILKWLSVEDILAVRAVHSQLKDLVDNHASVWACASFQE [E10S]: the abundance fitness is -0.233 ± 0.082.

In the case of RNLTILSLPDDVLFHILKWLSVEDILAVRAVHSQLKDLVDNHASVWACASFQE [E10D], the abundance fitness was -0.225 ± 0.12.

For RNLTILSLPEDVLFTILKWLSVEDILAVRAVHSQLKDLVDNHASVWACASFQE [H15T], the abundance fitness is -0.455 ± 0.13.

Turning to RNLTILSLPEDVLFAILKWLSVEDILAVRAVHSQLKDLVDNHASVWACASFQE [H15A], the abundance fitness is -0.279 ± 0.14.

On to RNLTILSLPEDVLFEILKWLSVEDILAVRAVHSQLKDLVDNHASVWACASFQE [H15E], for which the abundance fitness is -0.222 ± 0.15.

Consider RNLTILSLPEDVLFRILKWLSVEDILAVRAVHSQLKDLVDNHASVWACASFQE [H15R], for which the abundance fitness is 0.222 ± 0.089.

RNLTILSLPEDVLFHILKWLSVEDILAVRQVHSQLKDLVDNHASVWACASFQE [A30Q]: the abundance fitness is -0.031 ± 0.11.

As for RNLTILSLPEDVLFHILKWLSVEDILAVRSVHSQLKDLVDNHASVWACASFQE [A30S], the abundance fitness worked out at 0.111 ± 0.081.

Regarding RNLTILSLPEDVLFHILKWLSVEDILAVRAVHSQLKDLVDNHASVWAKASFQE [C48K], the abundance fitness was -0.307 ± 0.16.

As for RNLTILSLPEDVLFHILKWLSVEDILAVRAVHSQLKDLVDNHASVWAIASFQE [C48I], the abundance fitness was -0.306 ± 0.18.

On to RNLTILSLPEDVLFHILKWLSVEDILAVRAVHSQLKDLVDNHASVWACASFHE [Q52H], for which the abundance fitness is -0.108 ± 0.33.

Consider RNLTILSLPEDVLFHILKWLSVEDILAVRAVHSQLKDLVDNHASVWACASFTE [Q52T], for which the abundance fitness was -0.135 ± 0.11.

Consider RNLHILSLPEDVLFHILKWLSVEDILAVRAVHSQLKDLVDNHASVWACASFQE [T4H], for which the abundance fitness was -0.059 ± 0.14.

Turning to RNLVILSLPEDVLFHILKWLSVEDILAVRAVHSQLKDLVDNHASVWACASFQE [T4V], the abundance fitness is -0.997 ± 0.15.

Turning to RNLNILSLPEDVLFHILKWLSVEDILAVRAVHSQLKDLVDNHASVWACASFQE [T4N], the abundance fitness was -0.046 ± 0.14.

As to RNLTILSLPEDVLFHILKWSSVEDILAVRAVHSQLKDLVDNHASVWACASFQE [L20S], the abundance fitness was -0.705 ± 0.15.

Consider RNLTILSLPEDVLFHILKWISVEDILAVRAVHSQLKDLVDNHASVWACASFQE [L20I], for which the abundance fitness was -0.673 ± 0.23.

With RNLTILSLPEDVLFHILKWLSVEDILAVRAVHSQLKDLVDHHASVWACASFQE [N41H], the abundance fitness was -0.035 ± 0.18.

Regarding RNLTILSLPEDVLFHILKWLSVEDILAVRAVHSQLKDLVDWHASVWACASFQE [N41W], the abundance fitness was -0.733 ± 0.2.

With RNLTILSLPEDVLFHILKWLSVEDILAVRAVHSQLKDLVVNHASVWACASFQE [D40V], the abundance fitness is -0.606 ± 0.095.

Take RNLTILSLPEDVLFHILKWLSVEDILAVRAVHSQLKDLVANHASVWACASFQE [D40A]: the abundance fitness was -0.917 ± 0.13.

Consider RNLTILSLPEDVLFHILKWLSVEDILAVRAVHSQLKDLVDNHASVWCCASFQE [A47C], for which the abundance fitness is -0.218 ± 0.13.

Regarding RNLTILSLPEDVLFHILKWLSVEDILAVRAVHSQLKDLADNHASVWACASFQE [V39A], the abundance fitness is -0.341 ± 0.11.

On to RNLTILSLPEDVLFHILKWLSVEDILAVRAVHSQLKDLEDNHASVWACASFQE [V39E], for which the abundance fitness is -0.819 ± 0.17.

For the variant RNLTILSLPEDVLFHILKWLSVEDILAVRAVHSQLKDLTDNHASVWACASFQE [V39T], the abundance fitness was -0.787 ± 0.19.

Take RNLTILSLPEDVLFHILKWLSVEDILAVRAVHSQLKDLVDNHASVWACASFQD [E53D]: the abundance fitness is -0.178 ± 0.33.

RNLTILSLPEDVLFHILKHLSVEDILAVRAVHSQLKDLVDNHASVWACASFQE [W19H]: the abundance fitness was found to be 0.257 ± 0.18.

RNLTILSLPEDVLFHILKYLSVEDILAVRAVHSQLKDLVDNHASVWACASFQE [W19Y]: the abundance fitness turned out to be 0.397 ± 0.17.

Consider RNLTILSLPEDVLFHILKWLSVEDILAARAVHSQLKDLVDNHASVWACASFQE [V28A], for which the abundance fitness was -0.774 ± 0.13.

On to RNLTILSLPEDVLFHILKWLSVEDILAHRAVHSQLKDLVDNHASVWACASFQE [V28H], for which the abundance fitness was -0.372 ± 0.22.

On to RNLTILSLPEDVLFHILKWLSVEDILAVRAVHSQLKDLVDNHAGVWACASFQE [S44G], for which the abundance fitness amounted to 0.05 ± 0.084.

On to RNLTILSLPEDVLFHILKWLSVEDILAVRAVHSQLKDLVDNHATVWACASFQE [S44T], for which the abundance fitness was -0.307 ± 0.12.

In the case of RNLTITSLPEDVLFHILKWLSVEDILAVRAVHSQLKDLVDNHASVWACASFQE [L6T], the abundance fitness is -0.486 ± 0.12.

As to RNLTILSLPEDVLMHILKWLSVEDILAVRAVHSQLKDLVDNHASVWACASFQE [F14M], the abundance fitness was 0.181 ± 0.083.

As to RNLTILSLPEDVTFHILKWLSVEDILAVRAVHSQLKDLVDNHASVWACASFQE [L13T], the abundance fitness was -0.001 ± 0.17.

Regarding RNLTILSLPEDVFFHILKWLSVEDILAVRAVHSQLKDLVDNHASVWACASFQE [L13F], the abundance fitness stood at 0.091 ± 0.28.

As for RNLTILSLPEDVCFHILKWLSVEDILAVRAVHSQLKDLVDNHASVWACASFQE [L13C], the abundance fitness was -0.933 ± 0.35.

For RNLTILSRPEDVLFHILKWLSVEDILAVRAVHSQLKDLVDNHASVWACASFQE [L8R], the abundance fitness was -0.833 ± 0.24.

As for RNLTILSLPEDVLFHILKWLSVEDILAVRAVHAQLKDLVDNHASVWACASFQE [S33A], the abundance fitness is -0.648 ± 0.072.

RNLTILSLPEDVLFHILKWLSVEDILAVRAVHEQLKDLVDNHASVWACASFQE [S33E]: the abundance fitness is -0.675 ± 0.081.

These data come from the Human Domainome abundance scans (Beltran et al. 2025).
